Experimental data taken from paper PMC9015690 (Science signaling, 2021).

Target: Wild type CXCL12 (CXCL12-WT) (UniProt P48061-2 22-89)
Assay: ITC

Chain of Wild type CXCL12 (CXCL12-WT) (P48061 22-89): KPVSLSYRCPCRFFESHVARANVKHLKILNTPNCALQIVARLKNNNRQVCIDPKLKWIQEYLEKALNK

Kd: 4 µM
stoichiometry N: ~0.5
B1: ACKR1^N-term, sixty-amino acid peptide corresponding to the extracellular N-terminus of ACKR1 (domain or fragment, UniProt Q16570 1-60, looked up)
chain: MGNALHRAELSPSTENSSQLDFEDVWNSSYGVNDSFPDGDYGANLEAAAPAHSANLLDDS
